From patent publication US20190070251A1

Assays:
[1] = target: GPR54 G-Protein coupled receptor (cloned human GPR54) (human) (UniProt Q969F8); test: cell-based or functional assay
[2] = target: human µ opioid receptor (human), P35372; test: radioligand competition with [3H]naloxone (5 nM), membranes of CHO-K1 cells with recombinant human µ opioid receptor; Ki by Cheng-Prusoff; sample diluted on the day of the assay (unreleased)
[3] = target: human µ opioid receptor (human), P35372; test: radioligand competition with [3H]naloxone (5 nM), membranes of CHO-K1 cells with recombinant human µ opioid receptor; Ki by Cheng-Prusoff; sample pre-incubated 72 h at 37 C, pH 7.5 (partly released biphalin)
[4] = target: human µ opioid receptor (human), P35372; test: radioligand competition with [3H]naloxone (5 nM), membranes of CHO-K1 cells with recombinant human µ opioid receptor; Ki by Cheng-Prusoff
[5] = target: human µ opioid receptor (human), P35372; test: radioligand competition with [3H]naloxone (5 nM), membranes of CHO-K1 cells with recombinant human µ opioid receptor; Ki by Cheng-Prusoff; sample pre-incubated 72 h at 37 C, pH 7.5
[6] = target: human µ opioid receptor (human), P35372; test: radioligand competition with [3H]naloxone (5 nM), membranes of CHO-K1 cells with recombinant human µ opioid receptor; Ki by Cheng-Prusoff; remark: listed apart in the source
[7] = target: human µ opioid receptor (human), P35372; test: radioligand competition with [3H]naloxone (5 nM), membranes of CHO-K1 cells with recombinant human µ opioid receptor; Ki by Cheng-Prusoff; sample pre-incubated 20 h at 37 C, pH 7.5 (partly released biphalin)

Chain of human µ opioid receptor (human), P35372 (P35372 whole entry): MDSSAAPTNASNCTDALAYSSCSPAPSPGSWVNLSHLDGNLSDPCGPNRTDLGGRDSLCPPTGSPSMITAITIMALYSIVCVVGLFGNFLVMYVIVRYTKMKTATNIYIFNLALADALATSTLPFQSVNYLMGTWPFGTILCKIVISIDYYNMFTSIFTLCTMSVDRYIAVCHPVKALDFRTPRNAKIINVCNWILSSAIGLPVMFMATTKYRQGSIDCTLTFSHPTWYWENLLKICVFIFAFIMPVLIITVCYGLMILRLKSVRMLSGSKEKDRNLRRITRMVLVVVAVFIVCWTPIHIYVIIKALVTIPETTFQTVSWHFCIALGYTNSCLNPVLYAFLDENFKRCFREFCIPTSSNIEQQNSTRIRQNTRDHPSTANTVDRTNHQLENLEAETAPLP

Binder | EC50 (nM) of agonist activation at GPR54 (FLIPR calcium flux) [1] [nM] | Fold change compared to metastin [1] [fold] | Ki [2] [nM] | further results
Kisspeptin-54 (C-terminal amide (-NH2)) peptide: GTSLSPPPESSGSPQQPGLSAPHSRQIPAPQGAVLVQREKDLPNYNWNSFGLRF | 190 | 16 |  | 
YAGF (modifications not checked) [Biphalin] |  |  |  | Ki [4]: 3.4 nM; Ki [5]: 3.1 nM; Ki [6]: 4.7 nM
LPNYNWNSFGLRF (C-terminal amide (-NH2)) [Kisspeptin-13] | 11 | 1 |  | 

More lines, main results first:

EC50 (nM) of agonist activation at GPR54 (FLIPR calcium flux) [1] [nM] | Fold change compared to metastin [1] [fold] | Ki [2] [nM] | Binder | further results
 |  | 1120 | YAGF (modifications not checked) [Di-CAC-PEG2-FMOC-NHS-20K-biphalin] | Ki [3]: 13.7 nM
 |  | 21.7 | YAGF (modifications not checked) [Di-C2-PEG2-FMOC-NHS-20K-biphalin] | Ki [7]: 10.1 nM
